The nature of the series: protein stability index of a GFP-peptide fusion (GPS, HEK-293T) (PSI 1-6); higher = more stable. The following applies: c terminus: a fixed tail appended.

± gives the standard deviation.
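Note: 24-mer peptide tiles fused after GFP, lentivirally expressed, FACS-sorted into six equal bins by GFP/DsRed ratio, decoded by Illumina sequencing, PSI is the read-weighted mean bin number.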

Take APHTPPLPRRPRKGSSELGFPRVA [RNF208]: the protein stability index reads like this: (treatment: DMSO) 4.17 ± 0.21; (treatment: MLN4924 1 uM, 8 h) 4.06 ± 0.13.
On the same counts, the results for CGKSFSRSSHLVIHERTHERERLY [ZNF263] are 2.71 ± 0.13 and 2.86 ± 0.33.
The like results for TLLPWNFFMTATQYFTNRLDMSQN [SLC29A1] were, in that order, 2.9 ± 0.49 and 2.85 ± 0.37.
As for LKLQTKDGHRPEWTFYPRFSSNIH [SPATS1], the protein stability index runs as follows: (treatment: DMSO) 2.4 ± 0.3; (treatment: MLN4924 1 uM, 8 h) 2.48 ± 0.32.
On the same counts, the results for SELDADHPGFKDNVYRKRRKYFAD [TPH1] are 4.13 ± 0.21 and 4.19 ± 0.2.
On the same counts, the results for DGKLLWEQELYNNFVYNSPRGYFH [WASL] are 2.07 ± 0.24 and 2.27 ± 0.41.
Take GRLIQLSRDGATGHVLLTDSEFSM [PPFIA4]: the protein stability index reads like this: (treatment: DMSO) 2.24 ± 0.22; (treatment: MLN4924 1 uM, 8 h) 2.17 ± 0.46.
In the case of NIRPSSSGGYWVGMSTIRPNPGFS [APMAP], the protein stability index reads like this: (treatment: DMSO) 2.61 ± 1; (treatment: MLN4924 1 uM, 8 h) 2.65 ± 0.37.
On the same counts, the results for RGRFGELLLLLPTLQSITWQMIEQ [HNF4A] are 2.94 ± 0.28 and 3.33 ± 0.3.
Sequence TGNSLNEPEEPSEIPERRDSGVGA [DLC1] gave a protein stability index (treatment: DMSO) of 5.58 ± 0.19 and a protein stability index (treatment: MLN4924 1 uM, 8 h) of 5.59 ± 0.26.
On the same counts, the results for VEILDLNDNSPSFATPEREMRISE [PCDHGC5] are 4.08 ± 0.31 and 4.2 ± 0.28.
The like results for YFDPLRNEYFFDRNRPSFDAILYY [KCNA3] were, in that order, 2.62 ± 0.54 and 2.44 ± 0.32.
As for VAIFGPPNTYYEGGYFKARLKFPI [CDC34], the protein stability index reads like this: (treatment: DMSO) 2.24 ± 0.41; (treatment: MLN4924 1 uM, 8 h) 2.58 ± 0.3.
On the same counts, the results for SGDCDQRFRFPSPILKVQYHPRDQ [RBBP5] are 3.8 ± 0.19 and 3.74 ± 0.27.
Regarding MERLRELQRASILDMRRDHEEQLQ [FBF1], the protein stability index by setting is: (treatment: DMSO) 4.28 ± 0.28; (treatment: MLN4924 1 uM, 8 h) 4.42 ± 0.29.
On the same counts, the results for ETEKEEEEEDREEEDENGLPRRRG [NEUROD6] are 5.815 ± 0.053 and 5.62 ± 0.39.
As for KMLLMYCAKMEKDGYGMTPLLSAS [FEM1C], the protein stability index worked out at 2.56 ± 0.67 (treatment: DMSO) and 2.11 ± 0.46 (treatment: MLN4924 1 uM, 8 h).
On the same counts, the results for DVNEQVMQVLGPEDLQSIIYKLEE [CEP70] are 3.7 ± 0.21 and 3.7 ± 0.24.
On the same counts, the results for PLHVHEEEGILVAVGQDCYTRIWS [DCAF4] are 2.67 ± 0.3 and 2.74 ± 0.43.
Turning to GSFNGSEKETMQFLNDRLANYLEK [KRT36], the protein stability index reads like this: (treatment: DMSO) 3.38 ± 0.28; (treatment: MLN4924 1 uM, 8 h) 3.58 ± 0.3.
On the same counts, the results for FAPFIVYYFIMACDQYSCALTGPV [DHCR7] are 3.01 ± 0.077 and 3.2 ± 0.2.
On the same counts, the results for LLKTEALKRQAQEEAKGALLGTSG [DAPK3] are 4.89 ± 0.15 and 4.47 ± 0.12.
As for IEDTPLVPVSFIFIFTFVKKKKIG [PCDHGA10], the protein stability index runs as follows: (treatment: DMSO) 2.29 ± 0.55; (treatment: MLN4924 1 uM, 8 h) 3.12 ± 0.37.
The like results for SDLSRSSRGELIPISPSTEVGGSG [MYBL2] were, in that order, 5 ± 0.4 and 4.86 ± 0.34.
In the case of EESKEPKEEKQRRRCKPKKPTRRD [GNAS], the protein stability index is, setting by setting: (treatment: DMSO) 5.42 ± 0.11; (treatment: MLN4924 1 uM, 8 h) 5.44 ± 0.16.
The like results for AESFLLKSPIAPCSLDKRVILIFH [CDC25B] were, in that order, 2.75 ± 0.73 and 2.68 ± 0.96.
On the same counts, the results for VMFKEPIEILPNVCYTACATLKGP [BTBD1] are 2.12 ± 0.22 and 2.14 ± 0.26.
Regarding AQHKFLVAVESMEPNNIVVLLQTS [TCF25], the protein stability index was 2.58 ± 0.54 (treatment: DMSO) and 2.35 ± 0.56 (treatment: MLN4924 1 uM, 8 h).
For the sequence DETGITVASLERFSTYTSDKDENK [ZC3H15], the protein stability index is, setting by setting: (treatment: DMSO) 5.14 ± 0.3; (treatment: MLN4924 1 uM, 8 h) 5.29 ± 0.087.
The like results for PPMTQAQAVSAPGILNRPPAPTAT [ZNF207] were, in that order, 5.01 ± 0.18 and 5.09 ± 0.21.
On the same counts, the results for LGLSKLARIVEIYSRRLQVQERLT [GCH1] are 2.71 ± 0.65 and 2.2 ± 0.41.
On the same counts, the results for NRQSSDKQNGRVAKVKGHRSQKHK [C18orf25] are 4.67 ± 0.18 and 4.55 ± 0.17.
Regarding ASGHEPGGSAVCASRVKLQHLPAQ [PLEKHN1], the protein stability index was determined as 4.11 ± 0.27 (treatment: DMSO) and 3.95 ± 0.14 (treatment: MLN4924 1 uM, 8 h).
The like results for QCDHCERCFYTRKDVRRHLVVHTG [PLAGL1] were, in that order, 2.91 ± 0.074 and 3.19 ± 0.27.
For WDLVSASVVCRELGFGSAKEAVTG [LOXL2], the protein stability index by setting is: (treatment: DMSO) 2.58 ± 0.31; (treatment: MLN4924 1 uM, 8 h) 2.61 ± 0.089.
In the case of SSQDRMFETMAIEIEQLLARLTGV [GOSR1], the protein stability index (treatment: DMSO) is 2.52 ± 0.24 and the protein stability index (treatment: MLN4924 1 uM, 8 h) is 2.62 ± 0.44.
The like results for DSTMRILSNLVQHILKKYYGNGMR [RTP4] were, in that order, 2.45 ± 0.73 and 2.46 ± 0.41.
In the case of KGKVLAQQGEYSEAIPILRAALKL [FKBP8], the protein stability index stood at 2.37 ± 0.38 (treatment: DMSO) and 2.42 ± 0.56 (treatment: MLN4924 1 uM, 8 h).
On the same counts, the results for VVRGGEVVHRSDEQQHYFNTPFQL [PPTC7] are 3.26 ± 0.47 and 3.43 ± 0.24.
On the same counts, the results for SFCELHLKPHLEGAAFRDHQLLEP [TRIM29] are 2.87 ± 0.14 and 2.93 ± 0.087.
HPVTIGGKIVGSLCAIAGVLTIAL [KCNA3]: the protein stability index reads like this: (treatment: DMSO) 2.6 ± 0.42; (treatment: MLN4924 1 uM, 8 h) 2.05 ± 0.28.
For the sequence RREKAVHRLRVQQAALRAARLRHQ [NOP53], the protein stability index by setting is: (treatment: DMSO) 3.6 ± 0.41; (treatment: MLN4924 1 uM, 8 h) 3.71 ± 0.34.
Regarding VFDALESDHEMREEEKLKAEEIRI [KCNK9], the protein stability index turned out to be 5.27 ± 0.21 (treatment: DMSO) and 5.23 ± 0.17 (treatment: MLN4924 1 uM, 8 h).
For the sequence SPEKEEQYIAQFTSQFLSLQCLQA [PRAME], the protein stability index stood at 2.84 ± 0.41 (treatment: DMSO) and 2.44 ± 0.37 (treatment: MLN4924 1 uM, 8 h).
For ATLAACTSNGWGVTDCKHTEDVGV [LOXL2], the protein stability index is, setting by setting: (treatment: DMSO) 4.03 ± 0.42; (treatment: MLN4924 1 uM, 8 h) 4.08 ± 0.21.
The sequence VIGFAKMIPGFRDLTSEDQIVLLK [VDR] gave a protein stability index (treatment: DMSO) of 2.36 ± 0.51 and a protein stability index (treatment: MLN4924 1 uM, 8 h) of 2.42 ± 0.46.
On the same counts, the results for ESRAPSPLLHKDSASLEVVKKDHV [CBY2] are 5.18 ± 0.3 and 5.27 ± 0.24.
The like results for DGVKESSESTNTTIEDEDTKVRKQ [CAMK2A] were, in that order, 5.65 ± 0.13 and 5.59 ± 0.29.
On the same counts, the results for DWYQRQRPSEIKDYSPYFKTIEDL [KRT16] are 2.74 ± 0.28 and 2.9 ± 0.32.
For MQKEDNQVDVRFFGHHHQRAWIPS [ZMYND11], the protein stability index (treatment: DMSO) stood at 3.05 ± 0.12 and the protein stability index (treatment: MLN4924 1 uM, 8 h) turned out to be 3.18 ± 0.32.
On the same counts, the results for SPHRKRSDDSDEDEPCAISGKWTF [DLC1] are 4.47 ± 0.22 and 4.51 ± 0.13.
Consider SARIVQVVTAEAVAVLKGEQEKEA [MAP2], for which the protein stability index was found to be 4.82 ± 0.11 (treatment: DMSO) and 4.81 ± 0.21 (treatment: MLN4924 1 uM, 8 h).
On the same counts, the results for DTCRTQLVWLVRELVKSGVLGADG [INTS3] are 2.51 ± 0.54 and 2.37 ± 0.24.

The values above are taken from the supplement of paper PMC10567573.
